This is an account of results in article PMC11274882, “RNA Binding Properties of SOX Family Members”.

For orientation: Kd means the constant that tells how readily two partners part at equilibrium.

For data set [1], the target named is T1, SOX17 dCN HMG-box (UniProt Q9H6I2 74-137). Briefly: fluorescence polarisation; FP: 50 mM Tris, 125 mM NaCl, pH 8.0, 80 nM RNA, temperature not stated; EMSA: equal volumes of 100 uM protein and ssDNA, room temperature 15 min, 1.5% agarose. The following applies: protein: recombinant; tags: 6xHis; label: 3' FAM; hairpin. Background: In fluorescence polarisation assays a small probe gives low polarisation when free and higher when bound to something large.
T1 sequence (Q9H6I2 74-137): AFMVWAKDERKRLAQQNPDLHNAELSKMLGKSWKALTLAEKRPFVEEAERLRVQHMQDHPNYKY

Data set [2] has as its target T2, SOX17 HMG-box WT (UniProt Q9H6I2 66-145). Described as above. The conditions noted are these: protein: recombinant; tags: 6xHis; label: 3' FAM; hairpin.
For data set [3], the target named is T3, SOX2 HMG-box (UniProt P48431 39-127). Described as above. The conditions noted are these: protein: recombinant; label: 3' FAM; hairpin.
T3 sequence (P48431 39-127): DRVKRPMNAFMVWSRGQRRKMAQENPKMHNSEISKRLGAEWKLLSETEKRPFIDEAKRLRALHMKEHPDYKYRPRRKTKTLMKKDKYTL
In data set [4] the target is T4, SOX30 HMG-box (UniProt O94993 335-423).
T4 sequence: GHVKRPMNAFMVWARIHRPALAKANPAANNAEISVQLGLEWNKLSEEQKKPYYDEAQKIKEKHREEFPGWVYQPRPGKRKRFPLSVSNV
Described as above. The following applies: protein: recombinant; tags: 6xHis; label: 3' FAM; hairpin.

The target in data set [5] is T5, SOX17 dC HMG-box (UniProt Q9H6I2 66-137). Described as above. The following applies: protein: recombinant; tags: 6xHis; label: 3' FAM; hairpin.
T5 sequence (Q9H6I2 66-137): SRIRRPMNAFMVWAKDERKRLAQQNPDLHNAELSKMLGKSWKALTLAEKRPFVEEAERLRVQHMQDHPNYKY
Data set [6] concerns the target T3, SOX2 HMG-box. Briefly: EMSA; complex stays in well; FP: 50 mM Tris, 125 mM NaCl, pH 8.0, 80 nM RNA, temperature not stated; EMSA: equal volumes of 100 uM protein and ssDNA, room temperature 15 min, 1.5% agarose. The conditions noted are these: protein: recombinant; named 60-mer; length as printed may differ. A general note: In EMSA bound probe runs differently from free probe, usually more slowly.

The next data set concerns the target SOX21 HMG-box (UniProt Q9Y651 6-94). The description is as above. The following applies: protein: recombinant; tags: 6xHis; named 60-mer; length as printed may differ.
The target in the next data set is SOX15 HMG-box (UniProt O60248 47-135). Description: EMSA; FP: 50 mM Tris, 125 mM NaCl, pH 8.0, 80 nM RNA, temperature not stated; EMSA: equal volumes of 100 uM protein and ssDNA, room temperature 15 min, 1.5% agarose. The following applies: protein: recombinant; tags: 6xHis; named 60-mer; length as printed may differ.
Chain of SOX15 HMG-box (O60248 47-135): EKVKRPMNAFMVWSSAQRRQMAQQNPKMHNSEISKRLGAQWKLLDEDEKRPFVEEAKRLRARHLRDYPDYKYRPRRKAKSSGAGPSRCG
In data set [7] the target is T2, SOX17 HMG-box WT. Described as above. The conditions noted are these: protein: recombinant, tags: 6xHis.
For the next data set, the target named is SRY HMG-box (UniProt Q05066 58-140). The data set is described as above. The following applies: protein: recombinant; tags: 6xHis; named 60-mer; length as printed may differ.
Chain of SRY HMG-box (Q05066 58-140): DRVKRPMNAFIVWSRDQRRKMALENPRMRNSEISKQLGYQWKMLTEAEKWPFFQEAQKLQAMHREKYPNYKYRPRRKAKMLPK
For data set [8], the target named is T4, SOX30 HMG-box. Described as above. The following applies: protein: recombinant; tags: 6xHis; named 60-mer; length as printed may differ.
The next data set has as its target SOX9 HMG-box (UniProt P48436 103-183). The description is as above. The following applies: protein: recombinant; tags: 6xHis; named 60-mer; length as printed may differ.
A further data set addresses SOX6 HMG-box (UniProt P35712 619-707). Described as above. The following applies: protein: recombinant; named 60-mer; length as printed may differ.
The next data set has as its target SOX11 HMG-box (UniProt P35716 47-135). Described as above. The conditions noted are these: protein: recombinant; tags: 6xHis; named 60-mer; length as printed may differ.
Data set [9] deals with T2, SOX17 HMG-box WT. Briefly: NMR HSQC titration; 100 uM protein, 25-100 uM ssDNA; shifts at R125-R138, I68, A74, M76, E97, K100, W106; FP: 50 mM Tris, 125 mM NaCl, pH 8.0, 80 nM RNA, temperature not stated; EMSA: equal volumes of 100 uM protein and ssDNA, room temperature 15 min, 1.5% agarose. The following applies: protein: recombinant; tags: 6xHis.
Data set [10] addresses T1, SOX17 dCN HMG-box. Briefly: EMSA; FP: 50 mM Tris, 125 mM NaCl, pH 8.0, 80 nM RNA, temperature not stated; EMSA: equal volumes of 100 uM protein and ssDNA, room temperature 15 min, 1.5% agarose. The following applies: protein: recombinant; tags: 6xHis.
In another data set the target is SOX17 dN HMG-box (UniProt Q9H6I2 74-145). The description is as above. The following applies: protein: recombinant; tags: 6xHis.
Chain of SOX17 dN HMG-box (Q9H6I2 74-145): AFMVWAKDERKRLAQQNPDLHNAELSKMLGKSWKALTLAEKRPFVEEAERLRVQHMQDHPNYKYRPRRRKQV
Data set [11] addresses T5, SOX17 dC HMG-box. The data set is described as above. The following applies: protein: recombinant; tags: 6xHis.

T2 sequence (Q9H6I2 66-145): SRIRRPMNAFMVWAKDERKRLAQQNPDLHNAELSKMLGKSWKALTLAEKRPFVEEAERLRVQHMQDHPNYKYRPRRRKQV
Chain of SOX6 HMG-box (P35712 619-707): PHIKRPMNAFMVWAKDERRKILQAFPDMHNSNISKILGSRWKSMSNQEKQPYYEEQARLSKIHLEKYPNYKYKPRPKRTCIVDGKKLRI
Chain of SOX11 HMG-box (P35716 47-135): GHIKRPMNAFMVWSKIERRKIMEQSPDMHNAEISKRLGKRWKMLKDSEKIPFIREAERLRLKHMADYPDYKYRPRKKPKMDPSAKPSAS
Chain of SOX21 HMG-box (Q9Y651 6-94): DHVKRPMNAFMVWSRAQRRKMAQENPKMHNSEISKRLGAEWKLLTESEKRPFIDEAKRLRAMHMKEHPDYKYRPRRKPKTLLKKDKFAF
Chain of SOX9 HMG-box (P48436 103-183): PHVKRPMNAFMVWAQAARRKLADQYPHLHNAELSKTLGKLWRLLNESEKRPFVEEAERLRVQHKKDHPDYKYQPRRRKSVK

Regarding GGUCGCCGUGGCCACUUCGAAAGGGGUGGAAAGGGCGACC (structured_RNA) [40-mer RNA, ES2 lncRNA hairpin Loop A], the binding result with SOX17 dCN HMG-box [1], in the data set with SOX30 HMG-box [4] and with SOX17 dC HMG-box [5] was “no binding” in each case. The Kd with SOX17 HMG-box WT [2] was roughly 327 nM; with SOX2 HMG-box [3], roughly 57 nM.

B1: 60-mer ssDNA (ssDNA)
DNA: GTTAGAGGTGCCCCACAGGCGGCGGTTAGTATTCCCCGCCGCCTGGGGCACCGGGGCAC
For the molecule B1, the binding result with SOX2 HMG-box [6] is on record as “binds”; with SOX21 HMG-box, “binds”; with SOX15 HMG-box, “binds”; with SOX17 HMG-box WT [7] (named 60-mer, length as printed may differ), “binds”; with SRY HMG-box it was “binds”; in the data set with SOX30 HMG-box [8] it was “no binding”. Moreover, the binding result with SOX9 HMG-box, with SOX6 HMG-box and in the data set with SOX11 HMG-box was “binds” throughout.

ATCGATCGATCG (ssDNA) [12-mer ssDNA]: the binding result with SOX17 HMG-box WT [9] was “binds”.

Take CCCCATCTTAGTATATTAGTTA (ssDNA) [22-mer ssDNA]: the binding result with SOX17 dCN HMG-box [10] is listed as “no binding”; in the data set with SOX17 HMG-box WT [7], “binds”; with SOX17 dN HMG-box, “binds”; with SOX17 dC HMG-box [11], “no binding”.
